Assay: yeast display, Sf9 membrane polyspecificity reagent, FACS + sequencing; frameworks hold sequencing errors
Procedure, shortened: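 After 36–48 hours of galactose induction, yeast (Saccharomyces cerevisiae BJ5465) displaying a synthetic nanobody library were stained at 4 °C for 1 hour with 10% biotinylated, detergent-solubilized Sf9 membrane reagent. Streptavidin microbeads enriched the stained cells before FACS sorting into low and high (top ~1%) gates on anti-HA and streptavidin fluorescence. Each clone's polyreactivity label reflects its gate of origin.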

| Sequence | polyreactivity (PSR sort gate) |
| --- | --- |
| QVQLQESGGGLVQACGSLRLSCAASGYIFSHQYMGWYRQAPGKERELVASISPGATTNYADSVKGRFTISRDNAKNTVYLQMNSLKPEDTAVYYYAVQTPDVIRHFYWGQGTQVTVSS | high polyreactivity |
| QVQLQESGGGLVQADGSLRLSCAASGSIFGYYYMGWYRQAPGKDRELVATINICGITNYADSVKGRFTISRDNAKNTVYLQMNSLKPDDNAVYYCAADEYAQRDLGYWGQGTQVTVSS | low polyreactivity |
| QVQLQESGGGLVQAGASLRLSCAASGTIFLFRNMGWHRQAPGKERELVAGINGGTTTYYADSVIGRFTISRDNAKNTVYLQMNSLKPDDTAVYNCAAGASRLTYYDYWGLGTQVTVSS | low polyreactivity |
| QVQLQESGGGLVQAGGCLRLSCAASGSIFTYAVMGWYRQAHGKEHELVATIDTGSSTYYADSVKGRITISRDNAKNTLYLQMNSLIPEDTAVYYCAVNTYCRVRYRYWGQGTQVTVSS | high polyreactivity |
| QVQLQESGGGLVQAGGCLSCTASGTIFGQGDMGWSRQSPGKERELVATINDGASTYYADSVKGRFTISRDKAKNTVYLQKNSLKPDDTAVYYCAVLTDITTYFGYWGQGTQVTVSS | low polyreactivity |
| QVQLQESGGGLVQAGGCLSCTSSGTIFGQGDMGWYRQAPGKERELVATINDGASTYYADSVKGRFTISRDTAKNSVYLQKNSLKPDDTAVYYCAVFTDITTYFGYWGQGTQVTVSS | low polyreactivity |
| QVQLQESGGGLVQAGGDLRLSCAASGNIFRDYIMGWYRQAPGKEREFVAGIDRGANTNYADSVKGRFTISRDNAINTVYLQMKSLKPVDTAVYYCAVHTAFVPDFIYWGQGTQVTVSS | low polyreactivity |
| QVQLQESGGGLVQAGGGLRLSCAASGTISGPHVMGSSRQAPRKEREFLAAINVGANTYYADNVKGRFTISRDNAKNTVYLQMNSLKPEDTAVYYCAAVYYGDIGHEYWGQGTQVTVSC | low polyreactivity |
| QVQLQESGGGLVQAGGGLRLSCAASGTISGPHVMGWYRQAPGKEREFVAAINVGANTYYADNVKGRFTISRDNAKNTVYLQMNSLKPEDTAVYYRAAVYYGDIGHEYWGQGTQVTVSC | low polyreactivity |
| QVQLQESGGGLVQAGGILRLSCAACGNIFPSAVMGWYRQALGKEREFVATINSGSNTYYADSVKGRFTISRDNAKNTVYLQMNSLKLEDTAVYYCAAYFKLQAWHTYWGQGTQVTVSS | low polyreactivity |
| QVQLQESGGGLVQAGGILRLSCAASGPISRRSTMGWYRQAPGKERELVTAITRGTNTNYADSVKGRFTISRDNAKNTEYLQMNSLKPEDTAVYYCAAYGVLKPYRGDAVFHRYWGQGTQVTVSS | low polyreactivity |
| QVQLQESGGGLVQAGGNLRLSCAASGYISRWYGMGWYRQAPGKERELVAGMSPGGSTYYADSVKGRITISRDNAKNTVYLQMNSLKPEDTAVYYCAAQDFQDSIYFYWGQGTQVTVSS | high polyreactivity |
| QVQLQESGGGLVQAGGSLCMSCAASGSISDYIFMCWYRQAPGKVREFVAGIGIGGKTNYADSVKGRFTIRRDNEKYTVYLQMNSLKPEDTALYYCAANATYTDYYAYCGQGTQVTVSS | low polyreactivity |
| QVQLQESGGGLVQAGGSLGCEASGNISTRSEMGWYRQAPGKEREFVATINSGGITNYADSVKGRFTISRDNAKNTVYLRMNSLKPEDTAVYYRAVYGYFSDPYDYWGQGTQVTVSS | low polyreactivity |
| QVQLQESGGGLVQAGGSLRLGCAASGYISGFNEMGWYRQAPGKGRELDAAITYGGITNYADSVKGRFTISRDNAKNTVYLQMNSLKPEDTAMYYCAAGDFDQSNHAYWGQDTQVTVSS | high polyreactivity |
| QVQLQESGGGLVQAGGSLRLICAESGSISQTVYMGWYRQAPGKEREFVAAINAGASTYYADSVKGRFTISRDNAKNTVYLQMNSLKPEDTAVYYCAAEYYSAAYNRYWGQGTQVTVSS | low polyreactivity |
| QVQLQESGGGLVQAGGSLRLICSASGTNFTARFIGWYRQAPGKERELVATITDGGNTNHADSVKGRFTISRDNAKNTVFLQMNSLKPEDAAVYYCAAGEVDIDTLLYWGQGSQVTVSS | low polyreactivity |
| QVQLQESGGGLVQAGGSLRLSCAAIGYISYFVGMGWYRQQPGKEREFVASIADVSNTYYADSVKGRFTISRDNAKNTVYLQRNSLKPEDTAVYYCAVVDSWTYRFDYWGQGTQVTVSS | high polyreactivity |
